Test results from patent publication US20240327505A1 (published 2024).
Where a chain is given by its changes, count along the chain named.

B1: AB-010020 (antibody, V domains shown)
VH: QMQLVQSGPEVKKPGTSVKVSCKASGFTFTSSAVQWVRQARGQRLEWIGWIVVGSGNTNYAQKFQERVTITRDMSTSTAYMELSSLRSEDTAVYYCAAPACSSTSCYDGFDIWGQGTMVTVSS
VL: not shown
B2: AB-010021 (antibody, V domains shown)
VH: B1 VH with P99V, A100Y, S103G, T104G, Y107L, G109A
VL: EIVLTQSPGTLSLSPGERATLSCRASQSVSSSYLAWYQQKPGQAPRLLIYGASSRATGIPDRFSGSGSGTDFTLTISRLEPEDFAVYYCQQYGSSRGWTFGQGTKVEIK
B3: AB-009271 (antibody, V domains shown)
VH: EVQLVESGGGLIQPGGSLRLSCAASGFIVSSNYMSWVRQAPGKGLEWVSVIYSGGSTYYADSVKGRFTISRDNSKNTLYLQMNSLRAEDTAVYYCARDYGDFYFDYWGQGTLVTVSS
VL: EIVMTQSPATLSVSPGERATLSCRASQSVSSNLAWYQQKPGQAPRLLIYGASTRATGIPARFSGSGSGTEFTLTISSLQSEDFAVYYCQQYYNWPRTFGQGTKVEIK
B4: AB-009613 (antibody, V domains shown)
VH: B3 VH with I28T
VL: not shown
B5: AB-009610 (antibody, V domains shown)
VH: QVQLVQSGAEVKKPGSSVKVSCKASGGTFSNYAISWVRQAPGQGLEWMGRIIPILGIANYAQKFQGRVTITADKSTSTAYMELSSLRSEDTAVYYCATTPYYYDSSGYYLDYWGQGTLVTVSS
VL: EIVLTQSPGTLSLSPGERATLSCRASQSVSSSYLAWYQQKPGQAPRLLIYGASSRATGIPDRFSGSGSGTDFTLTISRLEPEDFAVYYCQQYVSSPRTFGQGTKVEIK
B6: AB-009251 (antibody, V domains shown)
V domain 1: QVQLVQSGAEVKKPGASVKVSCKTSGYTFTTFYIHWVRQVPGQGLEWMGIINPDGGSTNYAQEFQARVTMTTDTSTSTAYMELSSLRFEDTAVFYCATSLGAPPGLSPRTGPQRRGPPGFDFWGQGTLITVSA
V domain 2: QSVLTQPPSVSGAPGQRVTISCTGSSSNIGAGYDVHWYQQLPGTAPKLLIFDNNNRPSGVPYRFSGSRSGTSASLAITGLQPEDEADYYCQSYDSSLSGRVFGGGTRVTVL
B7: AB-009106 (antibody, V domains shown)
VH: QVQLAQSGAEVKRPGASVKVSCKASGFDLTTYGVGWVRQAPGQGLEWMGWISGSSGDTHYAQQFQDRVTMTTDTPTSTAYMELRSLRSDDTAVYYCVRENIAHYGSRTFLVRYYRGMDVWGQGTTVTVAS
VL: QSALTQPASVSGSPGQSITITCTGSSSDIGGFDFVSWYQQYPGKAPKLVISEVTNRPSGVSIRFSGSKSGNTASLTISGLQAEDEADYYCSSYASSYPTTNTRVFGTGTKVTVL
B8: AB-009214 (antibody, V domains shown)
VH: QVQLVESGGGVVQPGRSLRLSCAASGFTFSSYGMHWVRQAPGKGLEWVAVIWYDGSNKYYADSVKGRFTISRDNSKNTLYLQMNSLRAEDTAVYYCARDEPPSYYGSGSRFDYWGQGTLVTVSS
VL: SYELTQPPSVSVSPGQTARITCSGDALPKKYAYWYQQKSGQAPVLVIYEDSKRPSGIPERFSGSSSGTMATLTISGAQVEDEADYYCYSTDSSGNHWVFGGGTKLTVL
B9: AB-009291 (antibody, V domains shown)
VH: EVHLLESGGGLVQPGGSLRLSCAASGFTFTTYAMFWVRQAPGKGLEWVSAINAGGAKTHYADSVRGRFTISRDNSKSTLYLHMDRLRVGDTAIYYCAKVPSYIYDSRDDYLDFWGQGTLVTVSS
VL: EIVLTQSPATLSLSPGERATLSCRASQSVSSYLAWYQQRPGQAPRLLIYDASSRATGIPVRFSGSGSGTDFTLTISSLEPEDFAVYYCQQRSDWPLLTFGGGTKVEIK
B10: AB-009363 (antibody, V domains shown)
VH: EVQLLESGGGLVQPGGSLRLSCAASGFTFSSFAMTWIRQAPGKGLEWISAIGGDGGATYYVDSIKGRFTISRDNSKNTVYLHMNGLRVEDTAVYYCATPSPTRYSWGQGTLVTVSS
VL: DIVMTQSPDSLAVSLGERATLNCKSSQSVLYSSNNKNYLAWYQQKPGQPPKLLFYWASTRQSGVPDRFSGSGSGTDFTLTISSLQAEDGAVYYCQQYHKTPHTFGQGTKLEIK
B11: AB-009226 (antibody, V domains shown)
VH: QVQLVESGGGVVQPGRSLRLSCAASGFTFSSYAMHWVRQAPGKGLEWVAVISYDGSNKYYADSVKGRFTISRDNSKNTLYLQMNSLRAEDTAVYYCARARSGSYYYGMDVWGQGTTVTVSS
VL: QSALTQPASVSGSPGQSITISCTGTSSDVGGYNYVSWYQQHPGKAPKLMIYEVSNRPSGVSNRFSGSKSGNTASLTISGLQAEDEADYYCSSYTSSSTLYVFGTGTKVTVL
B12: AB-009676 (antibody, V domains shown)
VH: QVQLQQWGAGLLKPSETLSLTCAVYGGSFSGYYWSWIRQPPGKGLEWIGEINHSGSTNYNPSLKSRVTISVDTSKNQFSLKLSSVTAADTAVYYCARLSRQWLVRPHIYYFDYWGQGTLVTVSS
VL: DIQMTQSPSTLSASVGDRVTITCRASQSVSSYLNWYQQKPGKAPKLLIYAASSLQSGVPSRFSGSGSGTDFTLTISSLQPEDFATYFCQQSYSTPRTFGQGTKLEIK
B13: AB-009710 (antibody, V domains shown)
VH: LVQLIQSGAEVVKPGSSVKVSCTASGGSYSSYTLSWVRQAPGQGVEWLGRISPVLNTTYYAQKLEGRVTMTADESTSTVYMQLSSLRSEDTAVYYCARLASMNGVDIWGQGTSVTVSS
VL: EIVLTQSPGTLSLSPGERATLSCRASQSVYGSYLAWYQQKPGQAPRLLIYGGSSRATGIPDRFSGSGSGTDFTLTISRLEPEDFAVYYCHQYGTSRYSFGQGTKLDIK
B14: AB-009283 (antibody, V domains shown)
VH: EVQLVESGGGLIQPGGSLRLSCAASGFTVSSNYMSWVRQAPGKGLEWVSVIYSGGSTYYADSVKGRFTISRDNSKNTLYLQMNSLRAEDTAVYYCATSSFDYYYYFMDVWGKGTTVTVSS
VL: SYELTQPPSVSVSPGQTASITCSGDKLGDKYACWYHQKPGQSPVLVIYQDTKRPSGIPERFSASNSGNTATLTISGTQALDEADYYCQAWDSSIVVFGGGTKLTVL
B15: AB-009631 (antibody, V domains shown)
VH: EVQLVESGGGLVQPGGSLRLSCAASGFNFSFYWMSWVRQAPGKGLEWVANIKQDGSEKYYVDSVKGRFTISRDNAKNSLYLQMNSLRAEDTAVYYCARLSGGSWYFDYWGQGTLVTVSS
VL: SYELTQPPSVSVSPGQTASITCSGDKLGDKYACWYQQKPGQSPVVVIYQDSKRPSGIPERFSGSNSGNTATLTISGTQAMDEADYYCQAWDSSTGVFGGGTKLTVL
B16: AB-009273 (antibody, V domains shown)
VH: QVQLVQSGAEVKKPGSSVKVSCKASGGTFSSYAISWVRQAPGQGLEWMGGIIPIFGTANYAQKFQGRVTITTDESTSTAYMELSSLRSEDTAVYYCARVGVYDSSGYYFDYWGQGTLVTVSS
VL: EIVLTQSPATLSLSPGERATLSCRASQSVSSYLAWYQQKPGQAPRLLIYDASNRATGIPARFSGSGSGTDFTLTISSLEPEDFAVYYCQQRSNWPPRLTFGGGTKVEIK
B17: AB-009614 (antibody, V domains shown)
VH: QVQLVESGGGVVQPGRSLRLSCAASGFTFSSYGMHWVRQAPGKGLEWVAVISYDGSNKYYADSVKGRFTISRDNSKNTLYLQMNSLRAEDTAVYYCAKDQKYYDILTGYYRSTYYYYYYGMDVWGQGTTVTVSS
VL: not shown
B18: AB-009346 (antibody, V domains shown)
VH: EVQLVESGGGVVRPGGSLRLSCAASGFTFDDYGMSWVRQAPGKGLEWVSGINWNGGSTGYADSVKGRFTISRDNAKNSLYLQMNSLRAEDTALYYCARWPLLGISGYYHYYMDVWGKGTTVTVSS
VL: QSALTQPRSVSGSPGQSVTISCTGTSSDVGGYNYVSWYQQHPGKAPKLMIYDVSKRPSGVPDRFSGSKSGNTASLTISGLQAEDEADYYCCSYAGSYTLLFGGGTKLIVL
B19: AB-009281 (antibody, V domains shown)
VH: B3 VH with S7T, I28T, Y99L, G100Y, D101Y, F102Y, Y103G, F104M, Y106V, L112T
VL: DIQLTQSPSFLSASVGDRVTITCRASQGISSYLAWYQQKPGKAPKLLIYAASTLQSGVPSRFSGSGSGTEFTLTISSLQPEDFATYYCQQLNSYPTFGQGTKVEIK

Molecular target: SARS-CoV-2 spike receptor-binding domain (RBD) (SARS-CoV-2, UniProt P0DTC2 319-541)
Test: not given

Binder | Kd [nM] | koff [s⁻¹] | kon [M⁻¹ s⁻¹]
B1 | 2.16 | 0.00212 | 980000
B2 | 12.4 | 0.00275 | 221000
B3 | 15.1 | 0.00141 | 93200
B4 | 4.26 | 0.000313 | 73400
B5 | 21.6 | 0.00107 | 49500

Molecular target: SARS-CoV-2 spike S1 protein (SARS-CoV-2, UniProt P0DTC2 16-685)
Test: not given

Binder | Kd [nM] | koff [s⁻¹] | kon [M⁻¹ s⁻¹]
B1 | 13.5 | 0.0069 | 512000
B2 | 12.5 | 0.00214 | 171000
B3 | 55.4 | 0.0042 | 75900
B4 | 16.1 | 0.00102 | 63600
B5 | 111 | 0.00456 | 41100

Molecular target: SARS-CoV-2 spike receptor-binding domain (RBD) (SARS-CoV-2, UniProt P0DTC2 319-541)
Test: not given
Remark: another data set of the same source

Binder | Kd [nM] | koff [s⁻¹] | kon [M⁻¹ s⁻¹]
B6 | 9.31 | 0.000469 | 50400

Molecular target: SARS-CoV-2 spike S1 protein (SARS-CoV-2, UniProt P0DTC2 16-685)
Test: not given
Remark: another data set of the same source

Binder | Kd [nM] | koff [s⁻¹] | kon [M⁻¹ s⁻¹]
B6 | 48.1 | 0.000544 | 11300

Molecular target: SARS-CoV-2 spike S2 protein (SARS-CoV-2, UniProt P0DTC2 686-1213)
Test: not given

Binder | Kd [nM] | koff [s⁻¹] | kon [M⁻¹ s⁻¹]
B7 | 0.0413 | 2.63e-07 | 6370
B8 | 23.2 |  | 
B9 | 0.0174 | 3.28e-07 | 18900
B10 | 192 | 0.0016 | 8330
B11 | 27.9 | 0.000783 | 28100

Molecular target: SARS-CoV-2 S2 protein (SARS-CoV-2, UniProt P0DTC2 686-1213)
Test: not given

Binder | Kd [nM] | koff [s⁻¹] | kon [M⁻¹ s⁻¹]
B12 | 0.0456 | 3.12e-07 | 6840
B13 | 46.8 | 0.000591 | 12600
B14 | 22.7 | 0.000319 | 14100
B15 | 0.0273 | 3.31e-07 | 12100
B16 | 6.87 | 0.000148 | 21500

Molecular target: SARS-CoV-2 spike protein on fully infectious (replication-competent) SARS-CoV-2 virus (SARS-CoV-2, UniProt P0DTC2 14-1273)
Test: cell-based or functional assay

Binder | Neutralization (Infectious virus; (µg/mL)) [µg/mL]
B17 | 0.075
B18 | 2.14
B19 | 33.7

Molecular target: SARS-CoV-1 spike protein on pseudovirus (SARS-CoV-1, UniProt P59594 14-1255)
Test: cell-based or functional assay

Binder | Pseudovirus Neturalization [µg/mL]
B17 | > 50
B18 | > 50
B19 | > 50

Molecular target: SARS-CoV-2 Wuhan-1 full-length Spike protein on pseudovirus (SARS-CoV-2, UniProt P0DTC2 14-1273)
Test: cell-based or functional assay

Binder | Pseudovirus Neturalization [µg/mL]
B17 | 0.142
B18 | 0.774
B19 | 0.215

Molecular target: SARS-CoV-2 Spike (S) trimer (SARS-CoV-2, UniProt P0DTC2 16-1213)
Test: ELISA on coated S trimer, 1:50

Binder | OD 450 nm [OD]
B7 | 0.1
B8 | 0.691
B9 | 2.26
B6 | 0.886
B10 | 2.94
B11 | 2.33
